Laboratory results published in PMC9482650, “Quantitative fragmentomics allow affinity mapping of interactomes” (Nature Communications, 2022).

T1: SNTG2, Q9NY99
T1 sequence (Q9NY99 68-166, limits assumed, looked up): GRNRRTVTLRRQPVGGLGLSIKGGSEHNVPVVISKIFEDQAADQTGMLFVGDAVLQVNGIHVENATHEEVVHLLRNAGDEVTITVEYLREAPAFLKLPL

T2: TIAM2, Q8IVF5
T2 sequence (Q8IVF5 885-986, limits assumed, looked up): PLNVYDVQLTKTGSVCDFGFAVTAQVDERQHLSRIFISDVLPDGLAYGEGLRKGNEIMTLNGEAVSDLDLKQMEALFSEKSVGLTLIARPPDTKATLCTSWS

T3: PARD3B_1, Q8TEW8
T3 sequence (Q8TEW8 196-299, limits assumed, looked up): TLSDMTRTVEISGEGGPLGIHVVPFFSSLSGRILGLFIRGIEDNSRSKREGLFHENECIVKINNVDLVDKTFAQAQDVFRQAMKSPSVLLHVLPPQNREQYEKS

T4: NHERF3_3, Q5T2W1
T4 sequence (Q5T2W1 238-333, limits assumed, looked up): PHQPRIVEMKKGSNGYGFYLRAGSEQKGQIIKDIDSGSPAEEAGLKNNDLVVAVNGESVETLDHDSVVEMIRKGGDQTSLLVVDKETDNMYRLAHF

T5: LRRC7, Q96NW7
T5 sequence (Q96NW7 1440-1537, limits assumed, looked up): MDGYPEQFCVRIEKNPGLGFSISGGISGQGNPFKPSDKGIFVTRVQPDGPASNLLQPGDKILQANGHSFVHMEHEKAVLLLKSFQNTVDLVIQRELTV

T6: SNTG1, Q9NSN8
T6 sequence (Q9NSN8 52-150, limits assumed, looked up): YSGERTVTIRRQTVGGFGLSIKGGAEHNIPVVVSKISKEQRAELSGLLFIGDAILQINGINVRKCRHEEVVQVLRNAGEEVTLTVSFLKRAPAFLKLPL

T7: NHERF3_1, Q5T2W1
T7 sequence (Q5T2W1 4-100, limits assumed, looked up): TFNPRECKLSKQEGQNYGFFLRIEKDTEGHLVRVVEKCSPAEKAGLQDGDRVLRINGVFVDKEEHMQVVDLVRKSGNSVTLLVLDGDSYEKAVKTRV

T8: MPP6, Q9NZW5
T8 sequence (Q9NZW5 125-219, limits assumed, looked up): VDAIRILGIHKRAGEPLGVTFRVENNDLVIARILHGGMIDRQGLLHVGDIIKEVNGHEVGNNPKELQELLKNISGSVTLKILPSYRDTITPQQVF


molecular target: PICK1, Q9NRD5; test: holdup assay; set-up: key: below the threshold = too weak to quantify, mostly under pKd 3.1 to 4; conditions: plain residues with an end cap or a label only (N-terminal biotin on a linker: ado-ado)
Sequence (Q9NRD5 17-115): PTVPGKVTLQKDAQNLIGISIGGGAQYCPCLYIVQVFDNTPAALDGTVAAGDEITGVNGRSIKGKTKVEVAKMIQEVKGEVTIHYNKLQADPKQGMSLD

pKd | Binder
4.14 | PKRSFIESNV [TANC1, Q9C0D5]
below the threshold | DDEDRLVIEI [ZNF831, Q5JPB2]

molecular target: IL16_1, Q14005; test: holdup assay; set-up: key: below the threshold = too weak to quantify, mostly under pKd 3.1 to 4; conditions: plain residues with an end cap or a label only (N-terminal biotin on a linker: ado-ado)
Sequence (Q14005 210-306): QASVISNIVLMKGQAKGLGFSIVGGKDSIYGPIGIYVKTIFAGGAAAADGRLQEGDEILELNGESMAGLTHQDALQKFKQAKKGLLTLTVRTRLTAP

pKd | Binder
4.83 | PKRSFIESNV [TANC1, Q9C0D5]
below the threshold | DDEDRLVIEI [ZNF831, Q5JPB2]

molecular target: GRASP, Q7Z6J2; test: holdup assay; set-up: key: below the threshold = too weak to quantify, mostly under pKd 3.1 to 4; conditions: plain residues with an end cap or a label only (N-terminal biotin on a linker: ado-ado)
Sequence (Q7Z6J2 96-193): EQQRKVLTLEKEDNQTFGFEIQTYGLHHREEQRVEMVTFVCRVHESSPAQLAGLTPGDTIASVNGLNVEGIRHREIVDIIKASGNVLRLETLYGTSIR

pKd | Binder
below the threshold | PKRSFIESNV [TANC1, Q9C0D5]
3.53 | DDEDRLVIEI [ZNF831, Q5JPB2]

molecular target: T1, SNTG2, Q9NY99; test: holdup assay; set-up: key: below the threshold = too weak to quantify, mostly under pKd 3.1 to 4; conditions: plain residues with an end cap or a label only (N-terminal biotin on a linker: ado-ado)

pKd | Binder
4.71 | PKRSFIESNV [TANC1, Q9C0D5]
below the threshold | DDEDRLVIEI [ZNF831, Q5JPB2]

molecular target: Inadl_1, Q8NI35; test: holdup assay; set-up: key: below the threshold = too weak to quantify, mostly under pKd 3.1 to 4; conditions: plain residues with an end cap or a label only (N-terminal biotin on a linker: ado-ado)
Sequence (Q8NI35 113-229): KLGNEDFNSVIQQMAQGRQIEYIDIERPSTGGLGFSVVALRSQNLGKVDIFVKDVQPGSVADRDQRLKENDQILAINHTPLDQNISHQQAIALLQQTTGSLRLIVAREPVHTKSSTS

pKd | Binder
below the threshold | PKRSFIESNV [TANC1, Q9C0D5]
3.64 | DDEDRLVIEI [ZNF831, Q5JPB2]

molecular target: T2, TIAM2, Q8IVF5; test: holdup assay; set-up: key: below the threshold = too weak to quantify, mostly under pKd 3.1 to 4; conditions: plain residues with an end cap or a label only (N-terminal biotin on a linker: ado-ado)

pKd | Binder
below the threshold | PKRSFIESNV [TANC1, Q9C0D5]
3.9 | DDEDRLVIEI [ZNF831, Q5JPB2]

molecular target: DLG1_2, Q12959; test: holdup assay; set-up: key: below the threshold = too weak to quantify, mostly under pKd 3.1 to 4; conditions: plain residues with an end cap or a label only (N-terminal biotin on a linker: ado-ado)
Sequence (Q12959 314-412): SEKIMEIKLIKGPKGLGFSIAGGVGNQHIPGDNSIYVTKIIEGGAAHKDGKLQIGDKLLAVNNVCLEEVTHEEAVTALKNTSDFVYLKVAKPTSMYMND

pKd | Binder
4.96 | PKRSFIESNV [TANC1, Q9C0D5]
3.56 | DDEDRLVIEI [ZNF831, Q5JPB2]

molecular target: Inadl_3, Q8NI35; test: holdup assay; set-up: key: below the threshold = too weak to quantify, mostly under pKd 3.1 to 4; conditions: plain residues with an end cap or a label only (N-terminal biotin on a linker: ado-ado)
Sequence (Q8NI35 359-469): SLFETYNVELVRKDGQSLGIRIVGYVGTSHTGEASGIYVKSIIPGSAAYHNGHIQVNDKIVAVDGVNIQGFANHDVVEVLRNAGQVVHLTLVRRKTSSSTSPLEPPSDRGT

pKd | Binder
3.56 | PKRSFIESNV [TANC1, Q9C0D5]
4.8 | DDEDRLVIEI [ZNF831, Q5JPB2]

molecular target: T3, PARD3B_1, Q8TEW8; test: holdup assay; set-up: key: below the threshold = too weak to quantify, mostly under pKd 3.1 to 4; conditions: plain residues with an end cap or a label only (N-terminal biotin on a linker: ado-ado)

pKd | Binder
below the threshold | PKRSFIESNV [TANC1, Q9C0D5]
3.62 | DDEDRLVIEI [ZNF831, Q5JPB2]

molecular target: TJP1_3, Q07157; test: holdup assay; set-up: key: below the threshold = too weak to quantify, mostly under pKd 3.1 to 4; conditions: plain residues with an end cap or a label only (N-terminal biotin on a linker: ado-ado)
Sequence (Q07157 416-512): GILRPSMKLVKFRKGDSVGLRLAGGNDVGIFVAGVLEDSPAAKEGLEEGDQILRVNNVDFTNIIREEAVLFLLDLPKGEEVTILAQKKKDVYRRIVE

pKd | Binder
below the threshold | PKRSFIESNV [TANC1, Q9C0D5]
below the threshold | DDEDRLVIEI [ZNF831, Q5JPB2]

molecular target: NHERF4_4, Q86UT5; test: holdup assay; set-up: key: below the threshold = too weak to quantify, mostly under pKd 3.1 to 4; conditions: plain residues with an end cap or a label only (N-terminal biotin on a linker: ado-ado)
Sequence (Q86UT5 464-550): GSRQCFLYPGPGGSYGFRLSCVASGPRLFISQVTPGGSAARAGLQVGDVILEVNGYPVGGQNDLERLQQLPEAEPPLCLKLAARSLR

pKd | Binder
3.83 | PKRSFIESNV [TANC1, Q9C0D5]
3.66 | DDEDRLVIEI [ZNF831, Q5JPB2]

molecular target: DLG4_2, P78352; test: holdup assay; set-up: key: below the threshold = too weak to quantify, mostly under pKd 3.1 to 4; conditions: plain residues with an end cap or a label only (N-terminal biotin on a linker: ado-ado)
Sequence (P78352 155-259): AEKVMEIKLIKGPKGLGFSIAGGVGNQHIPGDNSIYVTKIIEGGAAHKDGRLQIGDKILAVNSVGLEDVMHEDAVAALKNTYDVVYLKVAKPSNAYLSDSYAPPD

pKd | Binder
5.04 | PKRSFIESNV [TANC1, Q9C0D5]
below the threshold | DDEDRLVIEI [ZNF831, Q5JPB2]

molecular target: T4, NHERF3_3, Q5T2W1; test: holdup assay; set-up: key: below the threshold = too weak to quantify, mostly under pKd 3.1 to 4; conditions: plain residues with an end cap or a label only (N-terminal biotin on a linker: ado-ado)

pKd | Binder
below the threshold | PKRSFIESNV [TANC1, Q9C0D5]
below the threshold | DDEDRLVIEI [ZNF831, Q5JPB2]

molecular target: T5, LRRC7, Q96NW7; test: holdup assay; set-up: key: below the threshold = too weak to quantify, mostly under pKd 3.1 to 4; conditions: plain residues with an end cap or a label only (N-terminal biotin on a linker: ado-ado)

pKd | Binder
4.61 | PKRSFIESNV [TANC1, Q9C0D5]
below the threshold | DDEDRLVIEI [ZNF831, Q5JPB2]

molecular target: IL16_4, Q14005; test: holdup assay; set-up: key: below the threshold = too weak to quantify, mostly under pKd 3.1 to 4; conditions: plain residues with an end cap or a label only (N-terminal biotin on a linker: ado-ado)
Sequence (Q14005 1229-1329): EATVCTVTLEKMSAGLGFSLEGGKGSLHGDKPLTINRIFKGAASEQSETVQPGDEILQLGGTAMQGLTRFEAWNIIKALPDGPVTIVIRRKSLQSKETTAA

pKd | Binder
below the threshold | PKRSFIESNV [TANC1, Q9C0D5]
3.77 | DDEDRLVIEI [ZNF831, Q5JPB2]

molecular target: MAST2, Q6P0Q8; test: holdup assay; set-up: key: below the threshold = too weak to quantify, mostly under pKd 3.1 to 4; conditions: plain residues with an end cap or a label only (N-terminal biotin on a linker: ado-ado)
Sequence (Q6P0Q8 1099-1202): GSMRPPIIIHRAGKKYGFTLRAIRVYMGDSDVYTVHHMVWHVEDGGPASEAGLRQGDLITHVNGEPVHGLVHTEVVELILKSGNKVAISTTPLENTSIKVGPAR

pKd | Binder
5.2 | PKRSFIESNV [TANC1, Q9C0D5]
4.08 | DDEDRLVIEI [ZNF831, Q5JPB2]

molecular target: PTPN3, P26045; test: holdup assay; set-up: key: below the threshold = too weak to quantify, mostly under pKd 3.1 to 4; conditions: plain residues with an end cap or a label only (N-terminal biotin on a linker: ado-ado)
Sequence (P26045 505-587): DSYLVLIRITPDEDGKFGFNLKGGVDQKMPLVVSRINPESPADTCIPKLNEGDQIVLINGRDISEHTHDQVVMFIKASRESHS

pKd | Binder
4.57 | PKRSFIESNV [TANC1, Q9C0D5]
below the threshold | DDEDRLVIEI [ZNF831, Q5JPB2]

molecular target: T6, SNTG1, Q9NSN8; test: holdup assay; set-up: key: below the threshold = too weak to quantify, mostly under pKd 3.1 to 4; conditions: plain residues with an end cap or a label only (N-terminal biotin on a linker: ado-ado)

pKd | Binder
4.95 | PKRSFIESNV [TANC1, Q9C0D5]
below the threshold | DDEDRLVIEI [ZNF831, Q5JPB2]

molecular target: GRIP2_6, Q9C0E4; test: holdup assay; set-up: key: below the threshold = too weak to quantify, mostly under pKd 3.1 to 4; conditions: plain residues with an end cap or a label only (N-terminal biotin on a linker: ado-ado)
Sequence (Q9C0E4 648-740): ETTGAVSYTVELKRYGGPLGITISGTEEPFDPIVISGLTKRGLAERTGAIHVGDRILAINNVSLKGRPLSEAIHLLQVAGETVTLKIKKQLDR

pKd | Binder
below the threshold | PKRSFIESNV [TANC1, Q9C0D5]
below the threshold | DDEDRLVIEI [ZNF831, Q5JPB2]

molecular target: T7, NHERF3_1, Q5T2W1; test: holdup assay; set-up: key: below the threshold = too weak to quantify, mostly under pKd 3.1 to 4; conditions: plain residues with an end cap or a label only (N-terminal biotin on a linker: ado-ado)

pKd | Binder
4.3 | PKRSFIESNV [TANC1, Q9C0D5]
below the threshold | DDEDRLVIEI [ZNF831, Q5JPB2]

molecular target: LAP2, Q96RT1; test: holdup assay; set-up: key: below the threshold = too weak to quantify, mostly under pKd 3.1 to 4; conditions: plain residues with an end cap or a label only (N-terminal biotin on a linker: ado-ado)
Sequence (Q96RT1 other isoform, or with tags, fused parts or gaps): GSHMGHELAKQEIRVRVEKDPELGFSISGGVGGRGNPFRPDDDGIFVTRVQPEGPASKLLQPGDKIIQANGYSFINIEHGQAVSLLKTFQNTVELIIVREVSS

pKd | Binder
5.27 | PKRSFIESNV [TANC1, Q9C0D5]
below the threshold | DDEDRLVIEI [ZNF831, Q5JPB2]

molecular target: DLG1_3, Q12959; test: holdup assay; set-up: key: below the threshold = too weak to quantify, mostly under pKd 3.1 to 4; conditions: plain residues with an end cap or a label only (N-terminal biotin on a linker: ado-ado)
Sequence (Q12959 457-571): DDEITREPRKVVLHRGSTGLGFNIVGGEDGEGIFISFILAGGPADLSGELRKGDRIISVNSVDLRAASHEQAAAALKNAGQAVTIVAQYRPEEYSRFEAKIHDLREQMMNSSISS

pKd | Binder
4.32 | PKRSFIESNV [TANC1, Q9C0D5]
below the threshold | DDEDRLVIEI [ZNF831, Q5JPB2]

molecular target: LIMK2, P53671; test: holdup assay; set-up: key: below the threshold = too weak to quantify, mostly under pKd 3.1 to 4; conditions: plain residues with an end cap or a label only (N-terminal biotin on a linker: ado-ado)
Sequence (P53671 143-248): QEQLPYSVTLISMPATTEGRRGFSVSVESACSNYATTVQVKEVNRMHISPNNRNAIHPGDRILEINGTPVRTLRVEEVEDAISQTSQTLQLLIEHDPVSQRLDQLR

pKd | Binder
below the threshold | PKRSFIESNV [TANC1, Q9C0D5]
below the threshold | DDEDRLVIEI [ZNF831, Q5JPB2]

molecular target: LDB3, O75112; test: holdup assay; set-up: key: below the threshold = too weak to quantify, mostly under pKd 3.1 to 4; conditions: plain residues with an end cap or a label only (N-terminal biotin on a linker: ado-ado)
Sequence (O75112 1-94): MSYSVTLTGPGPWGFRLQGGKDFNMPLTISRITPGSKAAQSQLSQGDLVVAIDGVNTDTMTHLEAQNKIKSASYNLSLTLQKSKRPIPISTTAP

pKd | Binder
below the threshold | PKRSFIESNV [TANC1, Q9C0D5]
3.57 | DDEDRLVIEI [ZNF831, Q5JPB2]

molecular target: PARD3_3, Q8TEW0; test: holdup assay; set-up: key: below the threshold = too weak to quantify, mostly under pKd 3.1 to 4; conditions: plain residues with an end cap or a label only (N-terminal biotin on a linker: ado-ado)
Sequence (Q8TEW0 582-685): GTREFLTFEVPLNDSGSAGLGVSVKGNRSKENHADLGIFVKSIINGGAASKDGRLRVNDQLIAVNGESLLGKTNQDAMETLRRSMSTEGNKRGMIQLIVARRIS

pKd | Binder
below the threshold | PKRSFIESNV [TANC1, Q9C0D5]
4.98 | DDEDRLVIEI [ZNF831, Q5JPB2]

molecular target: SCRIB_1, Q14160; test: holdup assay; set-up: key: below the threshold = too weak to quantify, mostly under pKd 3.1 to 4; conditions: plain residues with an end cap or a label only (N-terminal biotin on a linker: ado-ado)
Sequence (Q14160 718-814): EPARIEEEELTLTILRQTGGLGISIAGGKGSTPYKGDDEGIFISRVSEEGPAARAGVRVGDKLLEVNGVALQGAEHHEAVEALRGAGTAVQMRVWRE

pKd | Binder
5.2 | PKRSFIESNV [TANC1, Q9C0D5]
below the threshold | DDEDRLVIEI [ZNF831, Q5JPB2]

molecular target: SCRIB_3, Q14160; test: holdup assay; set-up: key: below the threshold = too weak to quantify, mostly under pKd 3.1 to 4; conditions: plain residues with an end cap or a label only (N-terminal biotin on a linker: ado-ado)
Sequence (Q14160 999-1103): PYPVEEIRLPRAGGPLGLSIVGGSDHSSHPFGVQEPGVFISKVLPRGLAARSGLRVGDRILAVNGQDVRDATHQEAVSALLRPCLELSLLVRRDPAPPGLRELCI

pKd | Binder
5.05 | PKRSFIESNV [TANC1, Q9C0D5]
3.48 | DDEDRLVIEI [ZNF831, Q5JPB2]

molecular target: ARHGEF12, Q9NZN5-2; test: holdup assay; set-up: key: below the threshold = too weak to quantify, mostly under pKd 3.1 to 4; conditions: plain residues with an end cap or a label only (N-terminal biotin on a linker: ado-ado)
Sequence (Q9NZN5 other isoform, or with tags, fused parts or gaps): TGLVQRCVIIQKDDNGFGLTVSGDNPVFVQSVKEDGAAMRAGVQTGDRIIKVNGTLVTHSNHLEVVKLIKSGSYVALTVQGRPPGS

pKd | Binder
3.47 | PKRSFIESNV [TANC1, Q9C0D5]
3.53 | DDEDRLVIEI [ZNF831, Q5JPB2]

molecular target: T8, MPP6, Q9NZW5; test: holdup assay; set-up: key: below the threshold = too weak to quantify, mostly under pKd 3.1 to 4; conditions: plain residues with an end cap or a label only (N-terminal biotin on a linker: ado-ado)

pKd | Binder
3.76 | PKRSFIESNV [TANC1, Q9C0D5]
below the threshold | DDEDRLVIEI [ZNF831, Q5JPB2]

molecular target: DLG4_3, P78352; test: holdup assay; set-up: key: below the threshold = too weak to quantify, mostly under pKd 3.1 to 4; conditions: plain residues with an end cap or a label only (N-terminal biotin on a linker: ado-ado)
Sequence (P78352 306-403): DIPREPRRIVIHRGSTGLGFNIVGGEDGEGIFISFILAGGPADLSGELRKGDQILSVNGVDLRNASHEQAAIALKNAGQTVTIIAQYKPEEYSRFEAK

pKd | Binder
4.27 | PKRSFIESNV [TANC1, Q9C0D5]
below the threshold | DDEDRLVIEI [ZNF831, Q5JPB2]
